Laboratory results as given in patent publication US20150133367A1 (University of Pennsylvania, published 2015).
Like-named read-outs stand apart in the source and are kept apart here. Positions of bridges follow the written chain, without caps; N, C: chain ends. Non-standard residues stand in square brackets, D forms with d. No end group written: not given here. alpha,alpha'‑meta‑xylylene = alpha,alpha'-meta-xylylene linker (from a,a'-dibromo-meta-xylene) bridging two cysteines via bis-thioether; Bip = N[C@@H](Cc1ccc(-c2ccccc2)cc1)C(=O)O; 2Nal = N[C@@H](Cc1ccc2ccccc2c1)C(=O)O

Tests used:
Assay in all cases: fluorescence-based enzyme inhibition assay
Calpain-1 [1] = molecular target: Calpain-1
Cathepsin L [2] = molecular target: T1, Cathepsin L (UniProt P07711 114-333)
T1 sequence (P07711 114-333 limits assumed): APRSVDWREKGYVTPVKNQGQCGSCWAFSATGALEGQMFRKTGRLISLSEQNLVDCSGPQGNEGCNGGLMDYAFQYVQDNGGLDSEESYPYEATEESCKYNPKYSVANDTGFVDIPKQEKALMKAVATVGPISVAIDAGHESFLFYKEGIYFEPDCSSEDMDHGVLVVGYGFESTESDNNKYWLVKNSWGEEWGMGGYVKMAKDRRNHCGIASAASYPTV

Calpain-1 [3] = molecular target: T2, Calpain-1
T2 chain 1: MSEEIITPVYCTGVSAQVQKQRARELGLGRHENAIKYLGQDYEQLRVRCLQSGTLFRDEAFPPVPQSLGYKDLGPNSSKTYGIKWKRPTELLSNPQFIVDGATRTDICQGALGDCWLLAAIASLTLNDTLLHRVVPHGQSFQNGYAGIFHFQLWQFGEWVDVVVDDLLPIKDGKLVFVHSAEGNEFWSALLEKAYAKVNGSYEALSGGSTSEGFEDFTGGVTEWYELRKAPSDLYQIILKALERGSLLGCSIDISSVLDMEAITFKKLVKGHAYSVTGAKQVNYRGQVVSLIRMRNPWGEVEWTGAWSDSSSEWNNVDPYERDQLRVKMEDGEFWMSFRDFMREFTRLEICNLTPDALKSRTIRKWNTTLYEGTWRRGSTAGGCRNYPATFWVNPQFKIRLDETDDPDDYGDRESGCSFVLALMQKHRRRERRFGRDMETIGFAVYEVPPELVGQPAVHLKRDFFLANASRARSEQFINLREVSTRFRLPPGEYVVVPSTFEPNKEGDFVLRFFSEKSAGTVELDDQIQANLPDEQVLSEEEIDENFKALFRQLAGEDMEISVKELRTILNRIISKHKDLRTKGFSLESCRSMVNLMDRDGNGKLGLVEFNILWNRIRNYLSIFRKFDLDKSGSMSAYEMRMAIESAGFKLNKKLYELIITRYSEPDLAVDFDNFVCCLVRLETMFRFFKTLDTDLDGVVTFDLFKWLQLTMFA
T2 chain 2: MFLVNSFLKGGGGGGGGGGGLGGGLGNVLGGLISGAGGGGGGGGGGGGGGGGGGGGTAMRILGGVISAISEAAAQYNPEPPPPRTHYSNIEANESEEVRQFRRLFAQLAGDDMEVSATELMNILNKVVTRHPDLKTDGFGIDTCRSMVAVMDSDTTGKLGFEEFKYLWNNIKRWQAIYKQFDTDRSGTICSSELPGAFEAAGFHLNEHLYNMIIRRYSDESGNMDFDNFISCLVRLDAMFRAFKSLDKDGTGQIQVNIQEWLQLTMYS

Cathepsin L [4] = molecular target: T1, Cathepsin L; remark: listed apart in the source
Cathepsin K [5] = molecular target: T3, Cathepsin K (UniProt P43235 115-329)
T3 sequence (looked up): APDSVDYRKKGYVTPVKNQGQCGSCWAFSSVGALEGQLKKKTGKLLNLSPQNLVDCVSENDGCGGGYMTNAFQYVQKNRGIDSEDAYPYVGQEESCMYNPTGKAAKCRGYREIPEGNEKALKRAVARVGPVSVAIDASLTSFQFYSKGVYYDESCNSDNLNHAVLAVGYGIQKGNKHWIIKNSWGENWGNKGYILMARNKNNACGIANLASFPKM

Cathepsin L [6] = molecular target: T1, Cathepsin L; remark: listed apart in the source
Cathepsin S = Cathepsin S (UniProt P25774 115-331)
Cathepsin S, sequence (P25774 115-331 limits assumed): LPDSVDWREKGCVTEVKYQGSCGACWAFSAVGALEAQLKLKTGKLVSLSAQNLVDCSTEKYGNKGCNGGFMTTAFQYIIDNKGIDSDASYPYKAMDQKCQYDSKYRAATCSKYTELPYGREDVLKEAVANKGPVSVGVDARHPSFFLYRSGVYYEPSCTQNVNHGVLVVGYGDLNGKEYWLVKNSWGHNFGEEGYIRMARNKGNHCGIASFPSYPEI

Cathepsin K [7] = molecular target: T3, Cathepsin K; remark: listed apart in the source

B1: IPPK(bip)CELLC (SEQ ID NO:82) (peptide)
peptide: IPPK[Bip]CELLC
modifications: linker 6-10 via alpha,alpha'‑meta‑xylylene
**Q.** With B1 as the binder, how does the Ki (Calpain-1 [1]) read?
**A.** 9.65 µM

B2: IPPK(OBn-Y)CELLC (SEQ ID NO:83) (peptide)
peptide: IPPKXCELLC
modifications: Cys6 and Cys10 (i,i+4) linked by alpha,alpha'-meta-xylylene; residue 5 OBn-Y = O-benzyltyrosine
**Q.** B2 was tested. Which Ki (Calpain-1 [1]) did it give?
**A.** 21.3 µM

**Q.** And the Ki (Cathepsin L [2])?
**A.** 16.7 µM

B3: SCE(bip)RCVMNG(nap) (SEQ ID NO:9) (peptide)
peptide: SCE[Bip]RCVMNG[2Nal]
modifications: linker 2-6 via alpha,alpha'‑meta‑xylylene
notes: also called compound (IIIa)
**Q.** Which Ki (Calpain-1 [3]) does the source give for B3 here?
**A.** 19.8 µM

B4: SECFRQCMNGF (SEQ ID NO:2) (peptide)
peptide: SECFRQCMNGF
modifications: linker 3-7 via alpha,alpha'‑meta‑xylylene
**Q.** B4 was tested. Which Ki (Cathepsin L [4]) did it give?
**A.** 84.7 µM

B5: SCEFRCVMNGF (SEQ ID NO:3) (peptide)
peptide: SCEFRCVMNGF
modifications: linker 2-6 via alpha,alpha'‑meta‑xylylene
**Q.** Which Ki (Cathepsin L [4]) does the source give for B5 here?
**A.** 29.4 µM

**Q.** What about the Ki (Cathepsin K [5]) of the same binder?
**A.** > 100 µM

B6: QCEVVCKMTGL (SEQ ID NO:34) (peptide)
peptide: QCEVVCKMTGL
modifications: linker 2-6 via alpha,alpha'‑meta‑xylylene
**Q.** For B6, which Ki (Cathepsin L [6]) is on record?
**A.** 46.2 µM

**Q.** What about the Ki (Cathepsin S) of the same binder?
**A.** 43.5 µM

**Q.** And the Ki (Cathepsin K [7])?
**A.** 76.8 µM

B7: SCEVVCKPTGL (SEQ ID NO:39) (peptide)
peptide: SCEVVCKPTGL
modifications: linker 2-6 via alpha,alpha'‑meta‑xylylene
**Q.** For B7, which Ki (Cathepsin L [6]) is on record?
**A.** 48 µM

**Q.** What about the Ki (Cathepsin S) of the same binder?
**A.** 58.3 µM

**Q.** And the Ki (Cathepsin K [7])?
**A.** > 100 µM
